{"source": "patent US20230173098A1", "about": "“NANOPARTICLE COMPLEX FOR ORAL ADMINISTRATION AND USES THEREOF” (IUCF-HYU (Industry-University Cooperation Foundation …, priority 2021, published 2023)", "key": {"[1]": {"system": "small intestine endothelial cells (Caco-2)", "assay": "Cytotoxicity (EZ-Cytox, TEM morphology) in small intestine endothelial cells", "type": "cell-based, human", "conditions": "Caco-2, gold equivalent 10 μM, 24 hours", "procedure": "(§1) Specifically, human umbilical vein endothelial cells (HUVECs) and small intestine endothelial cells (Caco-2) were seeded in 96-well plates at a seeding density of 5×10^3 cells for each well and incubated for 24 hours in a CO2 incubator. Next, AuNP, Ce6-AuNP and Lf-PEG-AuNP (gold equivalent concentration of 10 μM) were applied for 24 hours. Next, after washing with PBS buffer, wells were treated with a culture medium containing EZ-Cytox at 37° C. and 5% CO2 for 4 hours. In this case, the absorbance of the medium was measured with a micro-well plate reader at a wavelength of 450 nm, and the results are illustrated in FIGS. 16, 17A and 17B."}, "[2]": {"system": "human umbilical vein endothelial cells (HUVECs)", "assay": "Cytotoxicity (EZ-Cytox, TEM morphology) in vascular endothelial cells", "type": "cell-based", "conditions": "gold equivalent 10 μM, 24 hours", "procedure": "as §1"}, "[3]": {"assay": "PTT efficiency and photothermal heating profile under 532 nm PTT laser in vials", "type": "physicochemical"}, "[4]": {"conditions": "532 nm, 4 W/cm^2, 240 sec, gold equivalent 10 μM"}}, "data": [{"molecule": "AuNP-Lf: PEGylated Lf-conjugated AuNP (conjugate, UniProt P02788 20-710, looked up, PEGylated gold nanoparticle conjugate) Lactotransferrin: GRRRSVQWCAVSQPEATKCFQWQRNMRKVRGPPVSCIKRDSPIQCIQAIAENRADAVTLDGGFIYEAGLAPYKLRPVAAEVYGTERQPRTHYYAVAVVKKGGSFQLNELQGLKSCHTGLRRTAGWNVPIGTLRPFLNWTGPPEPIEAAVARFFSASCVPGADKGQFPNLCRLCAGTGENKCAFSSQEPYFSYSGAFKCLRDGAGDVAFIRESTVFEDLSDEAERDEYELLCPDNTRKPVDKFKDCHLARVPSHAVVARSVNGKEDAIWNLLRQAQEKFGKDKSPKFQLFGSPSGQKDLLFKDSAIGFSRVPPRIDSGLYLGSGYFTAIQNLRKSEEEVAARRARVVWCAVGEQELRKCNQWSGLSEGSVTCSSASTTEDCIALVLKGEADAMSLDGGYVYTAGKCGLVPVLAENYKSQQSSDPDPNCVDRPVEGYLAVAVVRRSDTSLTWNSVKGKKSCHTAVDRTAGWNIPMGLLFNQTGSCKFDEYFSQSCAPGSDPRSNLCALCIGDEQGENKCVPNSNERYYGYTGAFRCLAENAGDVAFVKDVTVLQNTDGNNNEAWAKDLKLADFALLCLDGKRKPVTEARSCHLAMAPNHAVVSRMDKVERLKQVLLHQQAKFGRNGSDCPDKFCLFQSETKNLLFNDNTECLARLHGKTTYEKYLGPQYVAGITNLKKCSTSPLLEACEFLRK", "values": [{"measurement": "cytotoxicity and morphological changes", "setting": "[1]", "result": "not detected"}, {"measurement": "cytotoxicity and morphological changes", "setting": "[2]", "result": "not detected"}, {"measurement": "PTT efficiency / heat generation (in words)", "setting": "[3]; 532 nm PTT laser, 4 W/cm^2", "result": "higher PTT efficiency"}, {"measurement": "Maximum temperature (Tmax)", "setting": "[3]; [4]", "result": "56.3 ± 0.5", "unit": "°C"}, {"measurement": "PTT efficiency (Tmax − T0)", "setting": "[3]; [4]", "result": "29.6 ± 0.2", "unit": "°C"}]}]}
